Measurements published in patent US10184137B2, “Method of producing isoprene monomer” (AJINOMOTO CO., INC., priority 2014, dated 2019).
Several values for one entry are separate records, joined by “and”; a condition that tells them apart may be missing. Equal entries are not always repeated.

B1: mpd: mevalonate kinase derived from Methanocella paludicola (SEQ ID NO:1), His-tagged purified enzyme (protein, listed as Methanocella paludicola)
chain: MTMCSAPGKVFLFGEHAVVYGKRAIACAIDLRTTVEVSRKSRGVHIHSAFKDEPDKNLYIKTAVKRMQKCADIRNVNIAVSSRIPVASGLGSSAAVTVATIGALNEEFSAGLSKKDIAYMAYQTELEVQGAASPTDTFVSTMGGTVVVPDMRTLPPITCGIVVGHTGISKSTSRMVSRVRTLKEKYPDVIDGIMDSIGDISARGEDLIKQNDYRSIGELMNVNQGLLDALGITIPELSLQIYAARQHGAYGAKITGAGGGGCMVAICDDKNCKEIATAIGRSYGDSFISKPTAEGIFIQ
modifications: His-tag
B2: cva: mevalonate kinase derived from Corynebacterium variabile (SEQ ID NO:3), His-tagged purified enzyme (protein)
chain: MAPHVGHGQTVAKIILFGEHSVVYGHPAIAMPLRTLRMIARVEPTDGPGTLSGLGWTGPITEAPARFSSIVKAAEVASDFAGHPGAGLNISTESEFPPERGLGSSAAAAGAVIRAVLDAFDTPATPRELFDLTQEAETVAHGRPSGLDAVATSAEAPVHFQAGQATDLEFSPDAWIVIADSGVEGSTRETVGHVRGRFEAEPDIITALLNRLGEITDEVVVDLRTGDVQGMGARMTEAHGILGQLGVSNTQLDALVTASLGAGALGAKLTGGGRGGCVIALAATEEDAENVEKALVDAGARGTWVHAPATGQMAGEVMQ
modifications: His-tag; Corynebacterium variabile
B3: sce: mevalonate kinase of Saccharomyces cerevisiae encoded by the ERG12 gene, His-tagged purified enzyme (protein, UniProt P07277 1-443, looked up)
Mevalonate kinase: MSLPFLTSAPGKVIIFGEHSAVYNKPAVAASVSALRTYLLISESSAPDTIELDFPDISFNHKWSINDFNAITEDQVNSQKLAKAQQATDGLSQELVSLLDPLLAQLSESFHYHAAFCFLYMFVCLCPHAKNIKFSLKSTLPIGAGLGSSASISVSLALAMAYLGGLIGSNDLEKLSENDKHIVNQWAFIGEKCIHGTPSGIDNAVATYGNALLFEKDSHNGTINTNNFKFLDDFPAIPMILTYTRIPRSTKDLVARVRVLVTEKFPEVMKPILDAMGECALQGLEIMTKLSKCKGTDDEAVETNNELYEQLLELIRINHGLLVSIGVSHPGLELIKNLSDDLRIGSTKLTGAGGGGCSLTLLRRDITQEQIDSFKKKLQDDFSYETFETDLGGTGCCLLSAKNLNKDLKIKSLVFQLFENKTTTKQQIDDLLLPGNTNLPWTS
modifications: His-tag
B4: mma: known mevalonate kinase derived from Methanosarcina mazei (SEQ ID NO:12), His-tagged purified enzyme (protein, listed as Methanosarcina mazei)
chain: MVSCSAPGKIYLFGEHAVVYGETAIACAVELRTRVRAELNDSITIQSQIGRTGLDFEKHPYVSAVIEKMRKSIPINGVFLTVDSDIPVGSGLGSSAAVTIASIGALNELFGFGLSLQEIAKLGHEIEIKVQGAASPTDTYVSTFGGVVTIPERRKLKTPDCGIVIGDTGVFSSTKELVANVRQLRESYPDLIEPLMTSIGKISRIGEQLVLSGDYASIGRLMNVNQGLLDALGVNILELSQLIYSARAAGAFGAKITGAGGGGCMVALTAPEKCNQVAEAVAGAGGKVTITKPTEQGLKVD
modifications: His-tag

system: mevalonate kinase; test: Expression analysis and activity confirmation of His-tagged mevalonate kinases from pET-21a(+) and pET-28b(+); format: biochemical; conditions: His-spinTrap eluate after dialysis, 10 μl enzyme solution
Description: Each obtained plasmid was used for transformation of E. coli BL21(DE3). […] When OD600 reached approximately 0.5, IPTG was added to the solution to final concentration of 1 mM. It was then cultured overnight at 20° C. Harvested cells were suspended in the buffer solution consisting of 50 mM sodium phosphate, 0.3 M NaCl and 20 mM Imidazol. Then the cells were disrupted with an ultrasonic disruptor (TOMY: UD-201, output level=3.5). After centrifugation (20,000×g, 20 min), disrupted cells were adsorbed to His-spinTrap (GE Healthcare). After washing with the same buffer solution, protein was eluted with the buffer solution consisting of 50 mM sodium phosphate, 0.3 M NaCl and 0.5 M imidazole (pH7.5). Eluate was dialyzed overnight at 4° C. with the external solution composed of 20 mM Tris-HCl (pH7.5) and 50 mM NaCl. Then, enzyme activity of each eluate in the internal dialysis solution was measured.
Activity of the internal dialysate (about 0.2 ml each) was measured with the 10 μl of enzyme solution (Table 8). Enzyme expression level was compared on activity basis between pET-21a(+) and pET-28b(+). […] It is inferred that expression level is higher in pET-28b(+). Therefore, purified enzyme expressed in pET-28b(+) was used in the further examinations.
Values were presented by decrease in absorbance per unit time per 10 μl in the enzyme reaction measurement system (dABS/min/10 μl).
(§1) Decrease in absorbance at 340 nm at 30° C. was measured to determine the enzyme activity. JASCO Corporation's spectrophotometer (V-650) was used in this study. Millimolar extinction coefficient of NADH used in this study was 6.22 mM^−1 cm^−1. […] Km value was calculated by Lineweaver-Burk plot.

Row | Molecule | enzyme activity, pET21 system (C terminal Tag) [dABS/min/10 μl] | enzyme activity, pET28 system (N terminal Tag) [dABS/min/10 μl]
1 | B1 | 0.011 | 0.031
2 | B2 | 0.019 | 0.211
3 | B3 | 0.001 | 0.127
4 | B4 | 0.225 | 0.231

system: mevalonate kinase; test: Measurement of activity and Km value of purified mevalonate kinase (PK/LDH coupled, 340 nm); format: biochemical; conditions: ATP 0.04 mM, potassium mevalonate 5 mM; 10 μl enzyme in 1 ml; replicate values
Description: Each obtained plasmid was used for transformation of E. coli BL21(DE3). […] When OD600 reached approximately 0.5, 0.1 mM IPTG (for cva, mma, nmr, and sce) or 1 mM (for mcl and mpd) of IPTG was added, and then the mixture was kept at 20° C. overnight to induce the target protein. Harvested cells were suspended in buffer solution A (50 mM sodium phosphate, 0.3 M NaCl and 20 mM Imidazol), and then the cells were disrupted with an ultrasonic disruptor (TOMY: UD-201). […] After centrifugation (28,000×g, 30 min), the supernatant was adsorbed onto His-Trap HP (GE Healthcare) to elute the target protein by linear concentration gradient of Imidazol (final concentration 0.5 M). Obtained protein was dialyzed by using an external solution composed of 20 mM Tris-HCl (pH 8.0) containing 1 mM DTT and 50 mM NaCl. Dialyzed protein was designated as purified enzyme. Protein quantity was measured with Bio-RAD protein assay kit and BSA standard condition.
as §1
Measured activity of each enzyme (JABS/min) was presented on Table 9 for the calculation of apparent Km value (Km app.) of each enzyme. Table 10 presents Km app., Vmax, molecular weight of the enzyme protein, protein concentration in the enzyme solution and calculated kcat.
Activity was indicated by dABS/min when 10 μl of each enzyme was added to 1 ml of reaction solution.

Row | Molecule | dABS/min at ATP 0.04 mM
5 | B1 | 0.01369 dABS/min and 0.01352 dABS/min and 0.01403 dABS/min
6 | B4 | 0.01326 dABS/min and 0.01358 dABS/min and 0.01398 dABS/min

same assay, conditions: ATP 0.2 mM, potassium mevalonate 5 mM; 10 μl enzyme in 1 ml; replicate values

Row | Molecule | dABS/min at ATP 0.2 mM
7 | B1 | 0.03262 dABS/min and 0.03252 dABS/min and 0.0325 dABS/min
8 | B2 | 0.005822 dABS/min and 0.005967 dABS/min and 0.005722 dABS/min
9 | B3 | 0.03041 dABS/min and 0.0304 dABS/min and 0.03229 dABS/min
10 | B4 | 0.05835 dABS/min and 0.05848 dABS/min and 0.05859 dABS/min

same assay, conditions: ATP 1 mM, potassium mevalonate 5 mM; 10 μl enzyme in 1 ml; replicate values

Row | Molecule | dABS/min at ATP 1 mM
11 | B1 | 0.04713 dABS/min and 0.04701 dABS/min and 0.04689 dABS/min
12 | B2 | 0.02063 dABS/min and 0.02015 dABS/min and 0.02051 dABS/min
13 | B3 | 0.07032 dABS/min and 0.07022 dABS/min and 0.0702 dABS/min
14 | B4 | 0.1533 dABS/min (2×) and 0.1528 dABS/min

same assay, conditions: ATP 5 mM, potassium mevalonate 5 mM; 10 μl enzyme in 1 ml; replicate values

Row | Molecule | dABS/min at ATP 5 mM
15 | B1 | 0.05141 dABS/min (2×) and 0.05155 dABS/min
16 | B2 | 0.03739 dABS/min and 0.03744 dABS/min and 0.03741 dABS/min
17 | B3 | 0.09422 dABS/min and 0.0941 dABS/min and 0.09418 dABS/min

same assay, conditions: in words

Row | Molecule | affinity to mevalonate and ATP compared with the other enzymes
18 | B1 | higher affinity to mevalonate and ATP than the other enzymes

same assay, conditions: potassium mevalonate 0.01 mM, ATP 5 mM; 10 μl enzyme in 1 ml; replicate values

Row | Molecule | dABS/min at mev 0.01 mM
19 | B1 | 0.06401 dABS/min and 0.0638 dABS/min and 0.06377 dABS/min
20 | B2 | 0.01264 dABS/min and 0.01267 dABS/min and 0.01265 dABS/min
21 | B3 | 0.01813 dABS/min and 0.01981 dABS/min and 0.01853 dABS/min
22 | B4 | 0.02921 dABS/min and 0.02805 dABS/min and 0.02788 dABS/min

same assay, conditions: potassium mevalonate 0.04 mM, ATP 5 mM; 10 μl enzyme in 1 ml; replicate values

Row | Molecule | dABS/min at mev 0.04 mM
23 | B1 | 0.1211 dABS/min and 0.1213 dABS/min and 0.121 dABS/min
24 | B2 | 0.03701 dABS/min and 0.03703 dABS/min and 0.03697 dABS/min
25 | B3 | 0.05257 dABS/min and 0.05264 dABS/min and 0.05265 dABS/min
26 | B4 | 0.08012 dABS/min and 0.08006 dABS/min and 0.08009 dABS/min

same assay, conditions: potassium mevalonate 0.2 mM, ATP 5 mM; 10 μl enzyme in 1 ml; replicate values

Row | Molecule | dABS/min at mev 0.2 mM
27 | B1 | 0.1506 dABS/min (2×) and 0.1505 dABS/min
28 | B2 | 0.0771 dABS/min and 0.07712 dABS/min and 0.07711 dABS/min
29 | B3 | 0.11 dABS/min and 0.1103 dABS/min (2×)
30 | B4 | 0.1761 dABS/min and 0.1758 dABS/min and 0.176 dABS/min

system: mevalonate kinase; test: Inhibition of each mevalonate kinase by DMAPP, GPP, FPP or DPM; format: biochemical; conditions: Table 11 control without terpenyl diphosphate (methanol added)
Description: Since GPP and FPP solutions contain methanol, methanol which was needed to keep the same methanol level at the addition to the reaction system was added to the reaction solution, which was designated as control.
Respective effect of the added 5 mM DMAPP, 0.1 mM GPP, and 0.1 mM FPP on the activity of each enzyme was measured. […] Contrarily, mcl-derived enzyme was activated by 5 mM DMAPP and its activity increased by 20% from that of the control.
Activity when 10 μl of each enzyme was added to 1 ml of the reaction system was represented by dABS/min
Effect of 1 mM diphosphomevalonate (DPM) on each enzyme was also studied.

Row | Molecule | enzyme activity, Control [dABS/min]
31 | B1 | 0.1573
32 | B2 | 0.08338
33 | B3 | 0.1365
34 | B4 | 0.21

same assay, conditions: Table 12 control without DPM

Row | Molecule | enzyme activity, Control [dABS/min]
35 | B1 | 0.148
36 | B2 | 0.07328
37 | B3 | 0.1028
38 | B4 | 0.1604

system: mevalonate kinase; test: Examination of product inhibition on each mevalonate kinase (absorbance at 386 nm, PMK addition); format: biochemical; conditions: 1 mM mevalonate as substrate; in words
Description: When decrease in absorbance stopped, purified PMK was added to measure further decrease in absorbance at 386 nm.
FIG. 18 presents the SDS-PAGE profile of the purified PMK. […] Then, absorbance decreased further and finally absorbance at 386 nm decreased to 0.3 in all reaction systems. Therefore, it is inferred that mevalonate is converted into diphosphomevalonate via phosphomevalonate by adding PMK to each MVK.

Row | Molecule | course of decrease in absorbance at 386 nm until PMK addition
39 | B1 | almost linear decrease in absorbance
40 | B2 | almost linear decrease in absorbance
41 | B3 | almost linear decrease in absorbance
42 | B4 | almost linear decrease in absorbance
